B1: Mothers against decapentaplegic homolog 4 (Homo sapiens), Q13485 (parent)
chain: MDNMSITNTPTSNDACLSIVHSLMCHRQGGESETFAKRAIESLVKKLKEKKDELDSLITAITTNGAHPSKCVTIQRTLDGRLQVAGRKGFPHVIYARLWRWPDLHKNELKHVKYCQYAFDLKCDSVCVNPYHYERVVSPGIDLSGLTLQSNAPSSMMVKDEYVHDFEGQPSLSTEGHSIQTIQHPPSNRASTETYSTPALLAPSESNATSTANFPNIPVASTSQPASILGGSHSEGLLQIASGPQPGQQQNGFTGQPATYHHNSTTTWTGSRTAPYTPNLPHHQNGHLQHHPPMPPHPGHYWPVHNELAFQPPISNHPAPEYWCSIAYFEMDVQVGETFKVPSSCPIVTVDGYVDPSGGDRFCLGQLSNVHRTEAIERARLHIGKGVQLECKGEGDVWVRCLSDHAVFVQSYYLDREAGRAPGDAVHKIYPSAYIKVFDLRQCHRQMQQQAATAQAAAAAQAAAVAGNIPGPGSVGGIAPAISLSAAAGIGVDDLRRLCILRMSFVKGWGPDYPRQSIKETPCWIEIHLHRALQLLDEVLHTMPIADPQPLD
partner: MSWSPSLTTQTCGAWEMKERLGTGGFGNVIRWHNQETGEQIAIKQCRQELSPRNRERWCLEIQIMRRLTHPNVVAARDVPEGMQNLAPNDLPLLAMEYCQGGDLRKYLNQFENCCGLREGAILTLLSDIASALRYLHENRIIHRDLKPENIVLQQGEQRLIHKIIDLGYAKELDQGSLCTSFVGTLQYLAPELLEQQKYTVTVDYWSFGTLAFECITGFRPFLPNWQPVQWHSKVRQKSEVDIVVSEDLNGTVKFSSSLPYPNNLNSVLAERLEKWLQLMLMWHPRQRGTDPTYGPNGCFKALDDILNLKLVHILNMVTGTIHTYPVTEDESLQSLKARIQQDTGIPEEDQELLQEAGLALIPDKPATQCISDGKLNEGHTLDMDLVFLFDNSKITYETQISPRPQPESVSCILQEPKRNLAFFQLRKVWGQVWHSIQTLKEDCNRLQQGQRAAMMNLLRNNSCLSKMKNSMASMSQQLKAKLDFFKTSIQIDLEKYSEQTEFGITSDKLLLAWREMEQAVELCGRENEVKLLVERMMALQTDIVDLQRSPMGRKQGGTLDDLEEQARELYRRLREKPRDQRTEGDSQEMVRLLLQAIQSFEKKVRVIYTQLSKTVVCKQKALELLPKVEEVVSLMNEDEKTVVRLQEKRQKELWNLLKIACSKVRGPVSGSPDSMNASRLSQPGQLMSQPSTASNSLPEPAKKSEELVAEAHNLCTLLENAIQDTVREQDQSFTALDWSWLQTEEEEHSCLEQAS
B2: Mothers against decapentaplegic homolog 4 (Homo sapiens), Q13485 (parent)
chain: B1 chain
partner: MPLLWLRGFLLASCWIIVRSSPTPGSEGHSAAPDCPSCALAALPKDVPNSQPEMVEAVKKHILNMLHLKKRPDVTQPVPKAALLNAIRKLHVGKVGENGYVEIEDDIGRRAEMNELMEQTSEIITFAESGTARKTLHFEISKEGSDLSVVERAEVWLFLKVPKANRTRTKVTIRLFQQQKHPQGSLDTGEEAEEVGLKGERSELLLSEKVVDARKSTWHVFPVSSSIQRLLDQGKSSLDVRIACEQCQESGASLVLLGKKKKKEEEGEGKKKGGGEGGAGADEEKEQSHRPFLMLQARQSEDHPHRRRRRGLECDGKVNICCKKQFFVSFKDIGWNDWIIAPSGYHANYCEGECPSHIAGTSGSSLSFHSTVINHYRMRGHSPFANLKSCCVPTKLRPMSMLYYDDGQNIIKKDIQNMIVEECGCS
B3: Mothers against decapentaplegic homolog 4 (Homo sapiens), Q13485 (parent)
chain: B1 chain
partner: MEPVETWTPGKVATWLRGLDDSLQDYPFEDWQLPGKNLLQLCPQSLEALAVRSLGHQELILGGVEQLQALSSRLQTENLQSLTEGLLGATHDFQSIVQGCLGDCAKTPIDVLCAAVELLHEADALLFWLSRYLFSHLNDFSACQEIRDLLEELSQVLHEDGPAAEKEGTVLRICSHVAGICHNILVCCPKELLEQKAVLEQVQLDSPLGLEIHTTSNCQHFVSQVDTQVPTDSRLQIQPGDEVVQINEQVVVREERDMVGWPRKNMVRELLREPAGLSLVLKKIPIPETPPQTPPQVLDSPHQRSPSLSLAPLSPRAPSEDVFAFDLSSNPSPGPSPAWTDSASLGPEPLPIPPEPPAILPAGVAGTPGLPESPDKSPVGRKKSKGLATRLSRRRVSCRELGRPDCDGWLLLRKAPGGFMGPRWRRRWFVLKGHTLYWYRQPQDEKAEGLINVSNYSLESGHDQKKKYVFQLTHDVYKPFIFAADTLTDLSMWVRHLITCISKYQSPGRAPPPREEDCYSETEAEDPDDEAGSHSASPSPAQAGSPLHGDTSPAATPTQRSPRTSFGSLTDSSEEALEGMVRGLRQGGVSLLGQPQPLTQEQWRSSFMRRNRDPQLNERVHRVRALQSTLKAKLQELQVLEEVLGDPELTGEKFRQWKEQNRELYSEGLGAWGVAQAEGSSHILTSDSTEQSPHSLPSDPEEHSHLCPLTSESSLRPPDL
B4: Mothers against decapentaplegic homolog 4 (Homo sapiens), Q13485 (parent)
chain: B1 chain
partner: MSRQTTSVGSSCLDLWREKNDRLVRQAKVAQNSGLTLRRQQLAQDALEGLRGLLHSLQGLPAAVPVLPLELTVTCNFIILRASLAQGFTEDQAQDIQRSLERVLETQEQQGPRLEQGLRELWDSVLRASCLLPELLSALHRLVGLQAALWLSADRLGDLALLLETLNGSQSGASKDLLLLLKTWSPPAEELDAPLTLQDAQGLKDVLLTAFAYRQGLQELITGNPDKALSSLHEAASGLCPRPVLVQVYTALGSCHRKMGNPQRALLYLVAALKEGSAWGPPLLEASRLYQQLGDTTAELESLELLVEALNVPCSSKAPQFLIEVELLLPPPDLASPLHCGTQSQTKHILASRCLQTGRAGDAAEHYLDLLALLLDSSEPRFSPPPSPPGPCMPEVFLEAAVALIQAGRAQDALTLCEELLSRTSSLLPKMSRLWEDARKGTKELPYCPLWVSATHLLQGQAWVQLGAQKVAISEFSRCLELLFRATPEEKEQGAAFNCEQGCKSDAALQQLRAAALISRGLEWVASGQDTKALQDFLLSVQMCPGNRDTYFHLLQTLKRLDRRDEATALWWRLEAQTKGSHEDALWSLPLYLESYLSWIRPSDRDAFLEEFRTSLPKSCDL
B5: Mothers against decapentaplegic homolog 4 (Homo sapiens), Q13485 (parent)
chain: B1 chain
partner: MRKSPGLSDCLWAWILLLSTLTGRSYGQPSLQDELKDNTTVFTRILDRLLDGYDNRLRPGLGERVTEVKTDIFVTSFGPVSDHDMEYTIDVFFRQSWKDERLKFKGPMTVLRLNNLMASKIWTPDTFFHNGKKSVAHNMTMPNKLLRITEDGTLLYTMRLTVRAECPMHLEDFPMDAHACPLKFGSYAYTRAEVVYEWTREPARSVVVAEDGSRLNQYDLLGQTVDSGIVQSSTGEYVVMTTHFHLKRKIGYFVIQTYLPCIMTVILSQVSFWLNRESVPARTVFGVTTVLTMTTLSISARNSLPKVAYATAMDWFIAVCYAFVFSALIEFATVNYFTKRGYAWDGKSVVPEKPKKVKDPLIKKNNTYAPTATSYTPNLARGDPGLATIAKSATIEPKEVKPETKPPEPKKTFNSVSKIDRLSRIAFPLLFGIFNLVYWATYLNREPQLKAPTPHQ

Variants of: B1
Settings: with ikkb_human IKBKB

Variant | effect of a mutation on the interaction
D351H | with no effect

Variants of: B2
Settings: with inhba_human INHBA

Variant | effect of a mutation on the interaction
D351H | with no effect

Variants of: B3
Settings: with cnkr1_human CNKSR1, Q969H4

Variant | effect of a mutation on the interaction
G386D | with no effect

Variants of: B3
Settings: with cnkr1_human CNKSR1, Q969H4
Remark: another data set of the same source

Variant | effect of a mutation on the interaction
R361H | with no effect

Variants of: B3
Settings: with cnkr1_human CNKSR1, Q969H4
Remark: another data set of the same source

Variant | effect of a mutation on the interaction
R361C | with no effect

Variants of: B3
Settings: with cnkr1_human CNKSR1, Q969H4
Remark: another data set of the same source

Variant | effect of a mutation on the interaction
D351H | with no effect

Variants of: B4
Settings: with fancg_human FANCG

Variant | effect of a mutation on the interaction
G386D | with no effect

Variants of: B4
Settings: with fancg_human FANCG
Remark: another data set of the same source

Variant | effect of a mutation on the interaction
D351H | with no effect

Variants of: B4
Settings: with fancg_human FANCG
Remark: another data set of the same source

Variant | effect of a mutation on the interaction
R361H | with no effect

Variants of: B4
Settings: with fancg_human FANCG
Remark: another data set of the same source

Variant | effect of a mutation on the interaction
R361C | with no effect

Variants of: B5
Settings: with gbra1_human GABRA1, P14867

Variant | effect of a mutation on the interaction
G386D | with no effect

From IntAct's records for PubMed 35512704
